T1: EsCas13d, nuclease-dead (Eubacterium siraeum, UniProt B0MS50, R295A;H300A;R849A;H854A)
T1 sequence: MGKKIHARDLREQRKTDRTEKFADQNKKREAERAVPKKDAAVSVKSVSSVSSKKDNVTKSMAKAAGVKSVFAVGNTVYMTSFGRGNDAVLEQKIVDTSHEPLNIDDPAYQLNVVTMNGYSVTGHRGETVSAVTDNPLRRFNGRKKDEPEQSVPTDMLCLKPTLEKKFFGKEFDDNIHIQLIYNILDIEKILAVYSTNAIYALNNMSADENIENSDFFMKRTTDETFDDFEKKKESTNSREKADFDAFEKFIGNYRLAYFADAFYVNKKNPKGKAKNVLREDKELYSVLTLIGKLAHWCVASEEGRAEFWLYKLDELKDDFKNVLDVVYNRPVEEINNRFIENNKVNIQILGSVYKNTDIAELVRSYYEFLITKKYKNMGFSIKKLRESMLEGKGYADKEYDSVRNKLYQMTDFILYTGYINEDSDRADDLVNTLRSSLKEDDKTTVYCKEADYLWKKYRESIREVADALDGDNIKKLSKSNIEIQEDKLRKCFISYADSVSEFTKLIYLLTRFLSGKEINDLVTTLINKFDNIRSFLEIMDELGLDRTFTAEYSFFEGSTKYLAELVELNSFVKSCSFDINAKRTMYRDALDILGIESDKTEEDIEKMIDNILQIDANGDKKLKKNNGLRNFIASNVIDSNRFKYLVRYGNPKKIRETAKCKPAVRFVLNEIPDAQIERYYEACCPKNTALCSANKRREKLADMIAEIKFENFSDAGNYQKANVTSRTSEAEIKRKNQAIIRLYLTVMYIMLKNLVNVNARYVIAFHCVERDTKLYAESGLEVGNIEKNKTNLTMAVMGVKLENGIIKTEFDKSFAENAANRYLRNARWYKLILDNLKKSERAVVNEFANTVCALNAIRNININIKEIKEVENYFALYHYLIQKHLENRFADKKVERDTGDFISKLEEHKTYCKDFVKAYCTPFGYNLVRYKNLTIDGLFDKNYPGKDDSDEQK

B1: target 1 insA 3' of 5,insG 3' of 1 (mixed)
RNA 1: CACCCGUGCAAAAAUGCAGGGGUCUAAAACUGAGCGGAUAACCUCUCUAUGG
RNA 2: GGGAAUGGAUCCACAUCUACGAAUUCGUACCAUAGAGAGGUUAUCCGACUCAGCCGAGAUCGGAAGAGCACACGU
B2: target 3 C6A,U7A (mixed)
RNA 1: CACCCGUGCAAAAUUGCAGGGGUCUAAAACGACCUGAAUAUUUCAGAUCAAA
RNA 2: GGGAAUGGAUCCACAUCUACGAAUUCGUUUUUGAUCUGAAAUAUAAAGGUCUGCAGAUCGGAAGAGCACACGU
B3: target 3 insC 3' of 9,insG 3' of 2 (mixed)
RNA 1: CACCCGUGCAAAAUUGCAGGGGUCUAAAACGACCUGAAUAUUUCAGAUCAAA
RNA 2: GGGAAUGGAUCCACAUCUACGAAUUCGUUUUUGAUCUGAAAUACUUCAGGUGCUGCAGAUCGGAAGAGCACACGU
B4: target 3 insG 3' of 5,insA 3' of 4 (mixed)
RNA 1: CACCCGUGCAAAAUUGCAGGGGUCUAAAACGACCUGAAUAUUUCAGAUCAAA
RNA 2: GGGAAUGGAUCCACAUCUACGAAUUCGUUUUUGAUCUGAAAUAUUCAGGAGUCUGCAGAUCGGAAGAGCACACGU
B5: target 3 U8A,A11C (mixed)
RNA 1: CACCCGUGCAAAAUUGCAGGGGUCUAAAACGACCUGAAUAUUUCAGAUCAAA
RNA 2: GGGAAUGGAUCCACAUCUACGAAUUCGUUUUUGAUCUGAACUAAUCAGGUCUGCAGAUCGGAAGAGCACACGU
B6: target 3 U2A,A13U (mixed)
RNA 1: CACCCGUGCAAAAUUGCAGGGGUCUAAAACGACCUGAAUAUUUCAGAUCAAA
RNA 2: GGGAAUGGAUCCACAUCUACGAAUUCGUUUUUGAUCUGUAAUAUUCAGGACUGCAGAUCGGAAGAGCACACGU
B7: target 3 insA 3' of 8,insA 3' of 2 (mixed)
RNA 1: CACCCGUGCAAAAUUGCAGGGGUCUAAAACGACCUGAAUAUUUCAGAUCAAA
RNA 2: GGGAAUGGAUCCACAUCUACGAAUUCGUUUUUGAUCUGAAAUAUAUCAGGUACUGCAGAUCGGAAGAGCACACGU
B8: target 3 G4U,U8A (mixed)
RNA 1: CACCCGUGCAAAAUUGCAGGGGUCUAAAACGACCUGAAUAUUUCAGAUCAAA
RNA 2: GGGAAUGGAUCCACAUCUACGAAUUCGUUUUUGAUCUGAAAUAAUCAUGUCUGCAGAUCGGAAGAGCACACGU
B9: target 3 U2G,A12U (mixed)
RNA 1: CACCCGUGCAAAAUUGCAGGGGUCUAAAACGACCUGAAUAUUUCAGAUCAAA
RNA 2: GGGAAUGGAUCCACAUCUACGAAUUCGUUUUUGAUCUGAUAUAUUCAGGGCUGCAGAUCGGAAGAGCACACGU
B10: target 3 A12G,A18G (mixed)
RNA 1: CACCCGUGCAAAAUUGCAGGGGUCUAAAACGACCUGAAUAUUUCAGAUCAAA
RNA 2: GGGAAUGGAUCCACAUCUACGAAUUCGUUUUUGGUCUGAGAUAUUCAGGUCUGCAGAUCGGAAGAGCACACGU
B11: target 3 C6G,U22A (mixed)
RNA 1: CACCCGUGCAAAAUUGCAGGGGUCUAAAACGACCUGAAUAUUUCAGAUCAAA
RNA 2: GGGAAUGGAUCCACAUCUACGAAUUCGUUAUUGAUCUGAAAUAUUGAGGUCUGCAGAUCGGAAGAGCACACGU
B12: target 1 insA 3' of 5,insA 3' of 2 (mixed)
RNA 1: CACCCGUGCAAAAAUGCAGGGGUCUAAAACUGAGCGGAUAACCUCUCUAUGG
RNA 2: GGGAAUGGAUCCACAUCUACGAAUUCGUACCAUAGAGAGGUUAUCCGACUCAACCGAGAUCGGAAGAGCACACGU
B13: target 3 insC 3' of 9,insA 3' of 7 (mixed)
RNA 1: CACCCGUGCAAAAUUGCAGGGGUCUAAAACGACCUGAAUAUUUCAGAUCAAA
RNA 2: GGGAAUGGAUCCACAUCUACGAAUUCGUUUUUGAUCUGAAAUACUUACAGGUCUGCAGAUCGGAAGAGCACACGU
B14: target 3 G3U,C6A (mixed)
RNA 1: CACCCGUGCAAAAUUGCAGGGGUCUAAAACGACCUGAAUAUUUCAGAUCAAA
RNA 2: GGGAAUGGAUCCACAUCUACGAAUUCGUUUUUGAUCUGAAAUAUUAAGUUCUGCAGAUCGGAAGAGCACACGU
B15: target 3 insG 3' of 9,insU 3' of 5 (mixed)
RNA 1: CACCCGUGCAAAAUUGCAGGGGUCUAAAACGACCUGAAUAUUUCAGAUCAAA
RNA 2: GGGAAUGGAUCCACAUCUACGAAUUCGUUUUUGAUCUGAAAUAGUUCAUGGUCUGCAGAUCGGAAGAGCACACGU
B16: target 3 G4U,A11G (mixed)
RNA 1: CACCCGUGCAAAAUUGCAGGGGUCUAAAACGACCUGAAUAUUUCAGAUCAAA
RNA 2: GGGAAUGGAUCCACAUCUACGAAUUCGUUUUUGAUCUGAAGUAUUCAUGUCUGCAGAUCGGAAGAGCACACGU
B17: target 3 U2A,U7A (mixed)
RNA 1: CACCCGUGCAAAAUUGCAGGGGUCUAAAACGACCUGAAUAUUUCAGAUCAAA
RNA 2: GGGAAUGGAUCCACAUCUACGAAUUCGUUUUUGAUCUGAAAUAUACAGGACUGCAGAUCGGAAGAGCACACGU
B18: target 3 G4U,A5G (mixed)
RNA 1: CACCCGUGCAAAAUUGCAGGGGUCUAAAACGACCUGAAUAUUUCAGAUCAAA
RNA 2: GGGAAUGGAUCCACAUCUACGAAUUCGUUUUUGAUCUGAAAUAUUCGUGUCUGCAGAUCGGAAGAGCACACGU
B19: target 3 G3U,C6U (mixed)
RNA 1: CACCCGUGCAAAAUUGCAGGGGUCUAAAACGACCUGAAUAUUUCAGAUCAAA
RNA 2: GGGAAUGGAUCCACAUCUACGAAUUCGUUUUUGAUCUGAAAUAUUUAGUUCUGCAGAUCGGAAGAGCACACGU
B20: target 3 C6G,U8C (mixed)
RNA 1: CACCCGUGCAAAAUUGCAGGGGUCUAAAACGACCUGAAUAUUUCAGAUCAAA
RNA 2: GGGAAUGGAUCCACAUCUACGAAUUCGUUUUUGAUCUGAAAUACUGAGGUCUGCAGAUCGGAAGAGCACACGU
B21: target 3 insG 3' of 6,insG 3' of 2 (mixed)
RNA 1: CACCCGUGCAAAAUUGCAGGGGUCUAAAACGACCUGAAUAUUUCAGAUCAAA
RNA 2: GGGAAUGGAUCCACAUCUACGAAUUCGUUUUUGAUCUGAAAUAUUCGAGGUGCUGCAGAUCGGAAGAGCACACGU
B22: target 3 G4A,U7A (mixed)
RNA 1: CACCCGUGCAAAAUUGCAGGGGUCUAAAACGACCUGAAUAUUUCAGAUCAAA
RNA 2: GGGAAUGGAUCCACAUCUACGAAUUCGUUUUUGAUCUGAAAUAUACAAGUCUGCAGAUCGGAAGAGCACACGU
B23: target 1 insU 3' of 21,insC 3' of 5 (mixed)
RNA 1: CACCCGUGCAAAAAUGCAGGGGUCUAAAACUGAGCGGAUAACCUCUCUAUGG
RNA 2: GGGAAUGGAUCCACAUCUACGAAUUCGUACCUAUAGAGAGGUUAUCCGCCUCACCGAGAUCGGAAGAGCACACGU
B24: target 3 G4C,U22G (mixed)
RNA 1: CACCCGUGCAAAAUUGCAGGGGUCUAAAACGACCUGAAUAUUUCAGAUCAAA
RNA 2: GGGAAUGGAUCCACAUCUACGAAUUCGUUGUUGAUCUGAAAUAUUCACGUCUGCAGAUCGGAAGAGCACACGU

These binders were tested against T1, EsCas13d, nuclease-dead (assay: crRNA (strand 1, pre-loaded); Mg2+; 40 mM Tris-HCl pH 7.5, 150 mM NaCl, 6 mM MgCl2, 1 mM DTT, 0.1% Tween-20, 0.2 mg/ml BSA; 25 C; 10 min per concentration, then washed). Details: tags: His6-TwinStrep-SUMO cleaved; N-terminal SNAP kept (SNAP-Surface 488); label: 3' end held by stalled T7 RNA polymerase.

In order of falling Kd:
1. B6  ~91.5 nM
2. B24  85.5 ± 24.5 nM
3. B3  81.5 ± 19 nM
4. B20  74.5 ± 7 nM
5. B15  65.5 ± 9 nM
6. B10  62 ± 13 nM
7. B13  60.5 ± 12.5 nM
8. B7  59.5 ± 18.5 nM
9. B23  50 ± 10 nM
10. B2  46.5 ± 5 nM
11. B9  46.5 ± 6.5 nM
12. B16  43.5 ± 8 nM
13. B5  42 ± 7 nM
14. B14  39.7 ± 3.65 nM
15. B8  30.2 ± 3.9 nM
16. B11  26.2 ± 3.5 nM
17. B22  21.1 ± 2.25 nM
18. B19  19.2 ± 1.95 nM
19. B21  16.3 ± 3 nM
20. B17  13.1 ± 1.7 nM
21. B4  9.2 ± 1.05 nM
22. B12  7.8 ± 0.7 nM
23. B18  7.04 ± 0.57 nM
24. B1  5.4 ± 0.4 nM

Source: article PMC10786891, “Massively parallel profiling of RNA-targeting CRISPR-Cas13d”
